Test results reported in US20130064834A1 (published 2013).

What was measured:
[1] = biological target: T1, cynomolgus monkey (Macaca fascicularis) PCSK9, myc-myc-his tagged (cynomolgus monkey (Macaca fascicularis), UniProt A8T662 31-692 (Macaca nemestrina entry), limits assumed); assay: SPR, mAb amine-coupled, 25C, pH 5.5
T1 construct: also called mfPCSK9-mmh; mfPCSK9
From the text: (§1) Briefly, mAbs were immobilized onto BIACORE™ CM5 sensor chips via amine coupling.

[2] = biological target: T2, Human PCSK9-myc-myc-his (human, UniProt Q8NBP7 31-692); assay: SPR, mAb amine-coupled, 25C, pH 5.5
T2 construct: also called hPCSK9-mmh; hPCSK9
From the text: as §1

[3] = biological target: T3, hPCSK9(D374Y)-mmh (human, UniProt Q8NBP7 31-692); assay: SPR, mAb amine-coupled, 25C, pH 5.5
T3 construct: also called hPCSK(D374Y)-mmh
From the text: as §1

[4] = biological target: T2, Human PCSK9-myc-myc-his; assay: cell-based or functional assay
[5] = biological target: T2, Human PCSK9-myc-myc-his; assay: competition ELISA vs hLDLR-ecto, pH 7.2
Method: (§2) Briefly, hLDLR-ecto, hLDLR EGF-A-hFc or hLDLR EGF-AB-hFc, each at 2 μg/ml, was coated on a 96-well plate in PBS buffer overnight at 4° C., and nonspecific binding sites blocked with BSA. […] The equilibrated sample solutions were transferred to receptor or receptor fragment coated plates.

[6] = biological target: T2, Human PCSK9-myc-myc-his; assay: competition ELISA vs EGF-A-hFc, pH 7.2
Method: as §2

[7] = biological target: T3, hPCSK9(D374Y)-mmh; assay: SPR, mAb captured on anti-human IgG, 25C
[8] = biological target: T2, Human PCSK9-myc-myc-his; assay: competition ELISA vs EGF-A-hFc, pH 5.5
Method: as §2

[9] = biological target: T2, Human PCSK9-myc-myc-his; assay: SPR, antigen captured at low density, pH 5.5, 25C
[10] = biological target: T2, Human PCSK9-myc-myc-his; assay: SPR, antigen captured at high density, pH 7.4, 25C
[11] = biological target: T2, Human PCSK9-myc-myc-his; assay: ELISA, mAb coated, 1.7 nM antigen
[12] = biological target: T4, hPCSK9(A341R) (human, UniProt Q8NBP7 31-692); assay: SPR, mAb captured, 25C;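 further: antibodies held on a sensor chip bearing chemically coupled F(ab′)2 anti-human IgG as the capture surface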
T4 construct: mmh-tagged variant hPCSK9
From the text: (§3) Each selected antibody was captured on a F(ab′)2 anti-hIgG surface created through direct chemical coupling to a BIACORE™ chip to form a captured antibody surface.

[13] = biological target: hPCSK9(P70A) (human, UniProt Q8NBP7 31-692); assay: SPR, mAb captured, 25C;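 further: antibodies held on a sensor chip bearing chemically coupled F(ab′)2 anti-human IgG as the capture surface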
From the text: as §3

[14] = biological target: T5, hPCSK9(S153R) (human, UniProt Q8NBP7 31-692); assay: SPR, mAb captured, 25C;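 further: antibodies held on a sensor chip bearing chemically coupled F(ab′)2 anti-human IgG as the capture surface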
T5 construct: mmh-tagged variant hPCSK9
From the text: as §3

[15] = biological target: T6, hPCSK9(D129G) (human, UniProt Q8NBP7 31-692); assay: SPR, mAb captured, 25C;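 further: antibodies held on a sensor chip bearing chemically coupled F(ab′)2 anti-human IgG as the capture surface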
T6 construct: mmh-tagged variant hPCSK9
From the text: as §3

[16] = biological target: T7, hPCSK9(S127R) (human, UniProt Q8NBP7 31-692); assay: SPR, mAb captured, 25C
T7 construct: mmh-tagged variant hPCSK9
From the text: as §3

[17] = biological target: T8, hPCSK9(E159R) (human, UniProt Q8NBP7 31-692); assay: SPR, mAb captured, 25C
T8 construct: mmh-tagged variant hPCSK9
From the text: as §3

[18] = biological target: T9, hPCSK9(F216L) (human, UniProt Q8NBP7 31-692); assay: SPR, mAb captured, 25C
T9 construct: mmh-tagged variant hPCSK9
From the text: as §3

[19] = biological target: T10, hPCSK9(R237E) (human, UniProt Q8NBP7 31-692); assay: SPR, mAb captured, 25C
T10 construct: mmh-tagged variant hPCSK9
From the text: as §3

[20] = biological target: T11, hPCSK9(R357H) (human, UniProt Q8NBP7 31-692); assay: SPR, mAb captured, 25C
T11 construct: mmh-tagged variant hPCSK9
From the text: as §3

[21] = biological target: T12, hPCSK9(E197R) (human, UniProt Q8NBP7 31-692); assay: SPR, mAb captured, 25C
T12 construct: mmh-tagged variant hPCSK9
From the text: as §3

[22] = biological target: T13, hPCSK9(D192R) (human, UniProt Q8NBP7 31-692); assay: SPR, mAb captured, 25C
T13 construct: mmh-tagged variant hPCSK9
From the text: as §3

[23] = biological target: T14, hPCSK9(E366K) (human, UniProt Q8NBP7 31-692); assay: SPR, mAb captured, 25C
T14 construct: mmh-tagged variant hPCSK9
From the text: as §3

[24] = biological target: T15, hPCSK9(E366K, V380M) (human, UniProt Q8NBP7 31-692); assay: SPR, mAb captured, 25C
T15 construct: mmh-tagged variant hPCSK9
From the text: as §3

[25] = biological target: T16, hPCSK9(T162R) (human, UniProt Q8NBP7 31-692); assay: SPR, mAb captured, 25C
T16 construct: mmh-tagged variant hPCSK9
From the text: as §3

[26] = biological target: T17, hPCSK9(R215H) (human, UniProt Q8NBP7 31-692); assay: SPR, mAb captured, 25C
T17 construct: mmh-tagged variant hPCSK9
From the text: as §3

[27] = biological target: T2, Human PCSK9-myc-myc-his; assay: SPR, mAb captured, 25C
From the text: as §3

[28] = biological target: T18, hPCSK9(D238R) (human, UniProt Q8NBP7 31-692); assay: SPR, mAb captured, 25C
T18 construct: mmh-tagged variant hPCSK9
From the text: as §3

[29] = biological target: T3, hPCSK9(D374Y)-mmh; assay: SPR, mAb captured, 25C
From the text: as §3

[30] = biological target: T3, hPCSK9(D374Y)-mmh; assay: competition ELISA vs EGF-AB-hFc, pH 5.5
Method: as §2

T1 sequence (A8T662 31-692 limits assumed): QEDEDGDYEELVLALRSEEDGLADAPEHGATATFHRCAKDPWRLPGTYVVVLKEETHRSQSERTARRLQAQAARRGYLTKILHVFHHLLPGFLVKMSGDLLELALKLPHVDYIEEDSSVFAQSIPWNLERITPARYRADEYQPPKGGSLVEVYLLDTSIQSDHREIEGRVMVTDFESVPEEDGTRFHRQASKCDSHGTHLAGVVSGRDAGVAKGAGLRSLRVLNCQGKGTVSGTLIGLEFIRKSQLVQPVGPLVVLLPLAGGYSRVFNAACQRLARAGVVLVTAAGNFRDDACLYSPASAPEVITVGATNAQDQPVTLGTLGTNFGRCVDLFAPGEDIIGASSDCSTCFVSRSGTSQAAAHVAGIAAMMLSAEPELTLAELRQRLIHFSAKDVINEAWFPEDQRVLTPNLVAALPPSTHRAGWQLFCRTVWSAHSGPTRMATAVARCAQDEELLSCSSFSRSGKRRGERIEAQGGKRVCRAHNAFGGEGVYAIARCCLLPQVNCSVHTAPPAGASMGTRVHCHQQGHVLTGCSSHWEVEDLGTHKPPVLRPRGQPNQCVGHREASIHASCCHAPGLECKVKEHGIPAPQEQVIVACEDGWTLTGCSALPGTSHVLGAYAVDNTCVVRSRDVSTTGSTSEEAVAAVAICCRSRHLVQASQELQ

B1: H1M300N (antibody, V domains shown)
VH: EMQLVESGGGLVQPGGSLRLSCAASGFTFSSHWMKWVRQAPGKGLEWVANINQDGSEKYYVDSVKGRFTISRDNAKNSLFLQMNSLRAEDTAVYYCARDIVLMVYDMDYYYYGMDVWGQGTTVTVSS
VL: not shown
notes: Fully human version made in CHO cells
B1 was tested, and the Kd [1] was 38.5 nM, the T1/2 [1] was 0.4 min and the Kd [2] was 3.1 nM. It also gave a T1/2 [2] of 5 min, a Kd [3] of 9.03 nM and a T1/2 [3] of 3 min. For the same binder, the “IC50, LDL uptake in HepG2 cells with 50 nM hPCSK9-mmh” value [4] was 22.1 nM, the IC50 [5] was 0.144 nM and the IC50 [6] was 0.146 nM. The Kd [7] was 1.06 nM, the T1/2 [7] was 49 min and the IC50 [8] was 0.538 nM. For the same binder, the Kd [9] was 1.38 nM, the T1/2 [9] was 13 min and the Kd [10] was 0.065 nM. For the same binder, the T1/2 [10] was 507 min, the OD [11] was > 1.5 od and the Kd [12] was 0.34 nM. For the same binder, the T1/2 [12] was 190 min, the Kd [13] was 1.68 nM and the T1/2 [13] was 80 min. The Kd [14] was 0.56 nM, the T1/2 [14] was 141 min and the Kd [15] was 1.4 nM. The T1/2 [15] was 88 min, the Kd [16] was 1.87 nM and the T1/2 [16] was 110 min. For the same binder, the Kd [17] was 0.82 nM, the T1/2 [17] was 94 min and the Kd [18] was 0.99 nM. For the same binder, the T1/2 [18] was 121 min, the Kd [19] was 1.03 nM and the T1/2 [19] was 109 min. For the same binder, the Kd [20] was 6.53 nM, the T1/2 [20] was 66 min and the Kd [21] was 0.67 nM. The T1/2 [21] was 115 min, the Kd [22] was 0.75 nM and the T1/2 [22] was 119 min. The Kd [23] was 36 nM, the T1/2 [23] was 2 min and the Kd [24] was 78.3 nM. The T1/2 [24] was 1 min, the Kd [25] was 0.58 nM and the T1/2 [25] was 140 min. The Kd [26] was 1.03 nM, the T1/2 [26] was 98 min and the Kd [27] was 0.69 nM. For the same binder, the T1/2 [27] was 120 min, the Kd [28] was 0.78 nM and the T1/2 [28] was 123 min. The Kd [29] was 0.66 nM, the T1/2 [29] was 83 min and the IC50 [30] was 3.94 nM.
